Results as given in paper PMC7708082.

Biological target: translesion synthesis (TLS) polymerase ι (human (endogenous in K562)) (UniProt Q9UNA4)
Assay: proximity ligation

UniProt Q9UNA4, sequence (Q9UNA4 whole entry): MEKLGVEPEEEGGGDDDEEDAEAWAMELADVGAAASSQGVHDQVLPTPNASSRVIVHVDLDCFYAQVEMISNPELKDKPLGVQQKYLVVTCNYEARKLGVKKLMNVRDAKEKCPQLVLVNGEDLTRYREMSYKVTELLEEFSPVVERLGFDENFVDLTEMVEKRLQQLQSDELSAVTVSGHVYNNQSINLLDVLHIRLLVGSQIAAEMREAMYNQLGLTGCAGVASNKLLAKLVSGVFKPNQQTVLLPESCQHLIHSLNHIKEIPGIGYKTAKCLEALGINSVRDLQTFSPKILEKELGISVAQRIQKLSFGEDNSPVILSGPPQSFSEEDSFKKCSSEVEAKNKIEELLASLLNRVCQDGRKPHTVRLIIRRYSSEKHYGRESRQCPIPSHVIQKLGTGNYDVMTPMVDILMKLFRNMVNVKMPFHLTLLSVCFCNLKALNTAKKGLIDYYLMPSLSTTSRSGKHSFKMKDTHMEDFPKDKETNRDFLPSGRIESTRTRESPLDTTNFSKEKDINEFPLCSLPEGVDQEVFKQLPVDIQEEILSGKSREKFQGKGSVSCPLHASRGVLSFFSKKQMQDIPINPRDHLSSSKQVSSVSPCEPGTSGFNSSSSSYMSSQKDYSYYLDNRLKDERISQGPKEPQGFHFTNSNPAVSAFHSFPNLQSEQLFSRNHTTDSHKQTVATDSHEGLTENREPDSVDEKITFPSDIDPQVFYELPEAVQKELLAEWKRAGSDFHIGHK

- reduction in PLA-foci numbers against p53(WT): 64%
Substance: p53(22Q/23S) (from UniProt P04637 1-393) (natural protein)
